# Assay results: US20240279278A1, “NMU RECEPTOR 2 AGONISTS” (Boehringer Ingelheim International GmbH, priority 2023, published 2024)
# T1: human neuromedin U receptor 1 (human, UniProt Q9HB89 24-426)
# T1 sequence (looked up): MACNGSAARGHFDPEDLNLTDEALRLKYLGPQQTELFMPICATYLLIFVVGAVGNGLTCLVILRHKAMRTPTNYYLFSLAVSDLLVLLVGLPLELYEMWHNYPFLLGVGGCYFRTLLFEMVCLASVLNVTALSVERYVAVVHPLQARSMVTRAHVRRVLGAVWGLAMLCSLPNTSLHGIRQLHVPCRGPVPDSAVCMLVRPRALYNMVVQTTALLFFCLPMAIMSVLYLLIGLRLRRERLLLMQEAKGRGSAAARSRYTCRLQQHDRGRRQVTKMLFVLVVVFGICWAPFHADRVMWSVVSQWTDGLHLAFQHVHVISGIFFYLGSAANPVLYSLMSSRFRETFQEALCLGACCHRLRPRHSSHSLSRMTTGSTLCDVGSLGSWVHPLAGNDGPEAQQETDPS
# B1: C18DA-gGlu3-Sar9-AEPipAc-Tyr-Phe-NMeLeu-Nle-Orn-Pro-Arg-Gly-NH2 (peptide)
# peptide: EEEXXXXXXXXXXYFLXXPRG
# HELM: PEPTIDE1{[O=C(O)CCCCCCCCCCCCCCCCC(=O)[*:2]].[gGlu].[gGlu].[gGlu].[Sar].[Sar].[Sar].[Sar].[Sar].[Sar].[Sar].[Sar].[Sar].[O=C(CN1CCN(CCN[*:1])CC1)[*:2]].Y.F.[meL].[Nle].[Orn].P.R.G.[am]}$$$$V2.0
# SMILES: CCCC[C@H](NC(=O)[C@H](CC(C)C)N(C)C(=O)[C@H](Cc1ccccc1)NC(=O)[C@H](Cc1ccc(O)cc1)NC(=O)CN1CCN(CCNC(=O)CN(C)C(=O)CN(C)C(=O)CN(C)C(=O)CN(C)C(=O)CN(C)C(=O)CN(C)C(=O)CN(C)C(=O)CN(C)C(=O)CN(C)C(=O)CC[C@H](NC(=O)CC[C@H](NC(=O)CC[C@H](NC(=O)CCCCCCCCCCCCCCCCC(=O)O)C(=O)O)C(=O)O)C(=O)O)CC1)C(=O)N[C@@H](CCCN)C(=O)N1CCC[C@H]1C(=O)N[C@@H](CCCNC(=N)N)C(=O)NCC(N)=O
# B2: C18DA-gGlu3-Sar12-AEPipAc-Tyr-Phe-NMeLeu-Nle-Dbu-Pro-Arg-Gly-NH2 (peptide)
# peptide: EEEXXXXXXXXXXXXXYFLXXPRG
# HELM: PEPTIDE1{[O=C(O)CCCCCCCCCCCCCCCCC(=O)[*:2]].[gGlu].[gGlu].[gGlu].[Sar].[Sar].[Sar].[Sar].[Sar].[Sar].[Sar].[Sar].[Sar].[Sar].[Sar].[Sar].[O=C(CN1CCN(CCN[*:1])CC1)[*:2]].Y.F.[meL].[Nle].[Dab].P.R.G.[am]}$$$$V2.0
# SMILES: CCCC[C@H](NC(=O)[C@H](CC(C)C)N(C)C(=O)[C@H](Cc1ccccc1)NC(=O)[C@H](Cc1ccc(O)cc1)NC(=O)CN1CCN(CCNC(=O)CN(C)C(=O)CN(C)C(=O)CN(C)C(=O)CN(C)C(=O)CN(C)C(=O)CN(C)C(=O)CN(C)C(=O)CN(C)C(=O)CN(C)C(=O)CN(C)C(=O)CN(C)C(=O)CN(C)C(=O)CC[C@H](NC(=O)CC[C@H](NC(=O)CC[C@H](NC(=O)CCCCCCCCCCCCCCCCC(=O)O)C(=O)O)C(=O)O)C(=O)O)CC1)C(=O)N[C@@H](CCN)C(=O)N1CCC[C@H]1C(=O)N[C@@H](CCCNC(=N)N)C(=O)NCC(N)=O
# B3: C18DA-gGlu3-Sar9-AEPipAc-Tyr-Phe-NMeLeu-Nle-Dbu-NMeAla-Arg-Gly-NH2 (peptide)
# peptide: EEEXXXXXXXXXXYFLXXARG
# HELM: PEPTIDE1{[O=C(O)CCCCCCCCCCCCCCCCC(=O)[*:2]].[gGlu].[gGlu].[gGlu].[Sar].[Sar].[Sar].[Sar].[Sar].[Sar].[Sar].[Sar].[Sar].[O=C(CN1CCN(CCN[*:1])CC1)[*:2]].Y.F.[meL].[Nle].[Dab].[meA].R.G.[am]}$$$$V2.0
# SMILES: CCCC[C@H](NC(=O)[C@H](CC(C)C)N(C)C(=O)[C@H](Cc1ccccc1)NC(=O)[C@H](Cc1ccc(O)cc1)NC(=O)CN1CCN(CCNC(=O)CN(C)C(=O)CN(C)C(=O)CN(C)C(=O)CN(C)C(=O)CN(C)C(=O)CN(C)C(=O)CN(C)C(=O)CN(C)C(=O)CN(C)C(=O)CC[C@H](NC(=O)CC[C@H](NC(=O)CC[C@H](NC(=O)CCCCCCCCCCCCCCCCC(=O)O)C(=O)O)C(=O)O)C(=O)O)CC1)C(=O)N[C@@H](CCN)C(=O)N(C)[C@@H](C)C(=O)N[C@@H](CCCNC(=N)N)C(=O)NCC(N)=O
# Target: T1, human neuromedin U receptor 1
# Assay: cell-based or functional assay
row,EC50 (hNMUR1) buffer,Binder
1,770 nM,B1
2,1700 nM,B2
3,> 1000 nM,B3
